Test results as given in the Immune Epitope Database (IEDB).
Values belong to the sequence of their own block, whether it stands above or below them.

How the values were obtained:
[1] = biological target: HLA-B*07:02; experiment: IEDB peptide-MHC binding, purified MHC/competitive/fluorescence; filed as Kd, often an IC50 or EC50 that approximates it; ≥ and ≤ were set here for values at or beyond the usual limits of such assays
[2] = biological target: HLA-A*26:02; experiment: as above
[3] = biological target: HLA-A*01:01; experiment: as above; conditions: source organism: Vaccinia virus Tian Tan
[4] = biological target: HLA-B*15:01; experiment: as above; conditions: source organism: Vaccinia virus Tian Tan
[5] = biological target: HLA-A*02:06; experiment: as above; conditions: source organism: Vaccinia virus Tian Tan
[6] = biological target: HLA-B*15:17; experiment: as above; conditions: source organism: Vaccinia virus Tian Tan
[7] = biological target: HLA-A*26:01; experiment: IEDB peptide-MHC binding, purified MHC/direct/fluorescence; filed as Kd, often an IC50 or EC50 that approximates it; ≥ and ≤ were set here for values at or beyond the usual limits of such assays
[8] = biological target: HLA-B*58:01; experiment: as above
[9] = biological target: HLA-B*57:01; experiment: as above
[10] = biological target: HLA-B*18:01; experiment: as above
[11] = biological target: HLA-B*08:02; experiment: as above
[12] = biological target: HLA-A*68:02; experiment: as above
[13] = biological target: HLA-B*08:01; experiment: as above
[14] = biological target: HLA-A*11:01; experiment: as above
[15] = biological target: HLA-C*07:02; experiment: as above
[16] = biological target: HLA-A*31:01; experiment: as above
[17] = biological target: HLA-A*24:03; experiment: as above
[18] = biological target: HLA-A*69:01; experiment: as above
[19] = biological target: HLA-A*02:01; experiment: as above
[20] = biological target: HLA-C*05:01; experiment: as above
[21] = biological target: HLA-C*04:01; experiment: as above
[22] = biological target: HLA-B*48:01; experiment: IEDB peptide-MHC binding, purified MHC/competitive/fluorescence; filed as Kd, often an IC50 or EC50 that approximates it; ≥ and ≤ were set here for values at or beyond the usual limits of such assays; conditions: source organism: Giardia lamblia ATCC 50803
[23] = biological target: HLA-A*02:50; experiment: as above
[24] = biological target: HLA-B*07:02; experiment: IEDB peptide-MHC binding, purified MHC/direct/fluorescence; filed as Kd, often an IC50 or EC50 that approximates it; ≥ and ≤ were set here for values at or beyond the usual limits of such assays
[25] = biological target: HLA-B*46:01; experiment: as above
[26] = biological target: HLA-B*40:01; experiment: as above
[27] = biological target: HLA-B*44:02; experiment: as above
[28] = biological target: HLA-B*15:01; experiment: as above
[29] = biological target: HLA-B*27:05; experiment: as above
[30] = biological target: HLA-A*03:01; experiment: as above
[31] = biological target: HLA-A*24:02; experiment: as above; conditions: source organism: Escherichia coli O157:H7
[32] = biological target: HLA-A*30:01; experiment: IEDB peptide-MHC binding, purified MHC/competitive/fluorescence; filed as Kd, often an IC50 or EC50 that approximates it; ≥ and ≤ were set here for values at or beyond the usual limits of such assays; conditions: source organism: Orthomarburgvirus marburgense
[33] = biological target: HLA-A*02:01; experiment: as above; conditions: source organism: Orthomarburgvirus marburgense
[34] = biological target: HLA-A*01:01; experiment: IEDB peptide-MHC binding, purified MHC/direct/fluorescence; filed as Kd, often an IC50 or EC50 that approximates it; ≥ and ≤ were set here for values at or beyond the usual limits of such assays
[35] = biological target: HLA-B*38:01; experiment: as above; conditions: source organism: Ravn virus - Ravn, Kenya, 1987
[36] = biological target: HLA-B*15:09; experiment: as above; conditions: source organism: Ravn virus - Ravn, Kenya, 1987
[37] = biological target: HLA-B*15:17; experiment: as above; conditions: source organism: Marburg virus - Musoke, Kenya, 1980
[38] = biological target: HLA-B*39:01; experiment: as above; conditions: source organism: Marburg virus - Musoke, Kenya, 1980
[39] = biological target: HLA-B*48:01; experiment: as above; conditions: source organism: Marburg virus - Musoke, Kenya, 1980
[40] = biological target: HLA-C*12:03; experiment: as above; conditions: source organism: Coxiella burnetii RSA 331
[41] = source organism: Vaccinia virus Tian Tan
[42] = source organism: Camelpox virus CMS
[43] = source organism: Mycobacterium tuberculosis C
[44] = source organism: Tokudaia muenninki
[45] = source organism: Escherichia coli O157:H7
[46] = source organism: Orthomarburgvirus marburgense
[47] = source organism: Marburg virus - Musoke, Kenya, 1980
[48] = source organism: Coxiella burnetii
[49] = source organism: Salmonella enterica subsp. enterica serovar Typhimurium

Sequence: YYKDDISYF
Kd [1, 41]: ≥ 20 µM
Kd [2, 41]: 0.0347 µM
Kd [3]: 1.39 µM
Kd [4]: ≥ 20 µM
Kd [5]: ≥ 20 µM
Kd [6]: ≥ 20 µM
Kd ([7]; source organism: Variola virus): 0.579 µM
Kd [8, 42]: ≥ 20 µM
Kd [9, 42]: ≥ 20 µM
Kd [10, 42]: ≥ 20 µM
Kd ([11]; source organism: Variola virus): ≥ 20 µM
Kd [12, 42]: ≥ 20 µM
Kd ([13]; source organism: Variola virus): ≥ 20 µM
Kd [14, 42]: ≥ 20 µM
Kd [15, 41]: 0.029 µM
Kd [16, 42]: ≥ 20 µM
Kd [17, 42]: 0.0037 µM
Kd [18, 42]: ≥ 20 µM
Kd [19, 42]: ≥ 20 µM

Sequence: VYAPAGVEL
Kd [20, 43]: ≥ 20 µM
Kd [21, 43]: ≥ 20 µM
Kd ([17]; source organism: Mycobacterium tuberculosis): 0.0021 µM

Sequence: YYNAFQWAI
Kd [21, 44]: ≥ 20 µM
Kd [15, 44]: 0.03 µM

Sequence: GMYGHPFAL
Kd [22]: 0.0283 µM

Kd ([23]; source organism: Escherichia coli 536): ≤ 0.0001 µM
Kd [24, 45]: ≥ 20 µM
Kd [25, 45]: ≥ 20 µM
Kd [26, 45]: ≥ 20 µM
Kd [8, 45]: ≥ 20 µM
Kd [27, 45]: ≥ 20 µM
Kd [28, 45]: ≥ 20 µM
Kd [29, 45]: ≥ 20 µM
Kd [14, 45]: ≥ 20 µM
Kd [16, 45]: ≥ 20 µM
Kd [30, 45]: ≥ 20 µM
Kd [19, 45]: 0.0042 µM
Kd [31]: ≥ 20 µM
Sequence: LLDPLYFEV

Sequence: IFDDLQGSL
Kd [32]: ≥ 20 µM
Kd [2, 46]: ≥ 20 µM
Kd [33]: ≥ 20 µM
Kd [24, 47]: ≥ 20 µM
Kd [25, 47]: ≥ 20 µM
Kd [26, 47]: ≥ 20 µM
Kd [20, 46]: 3.84 µM
Kd [8, 47]: ≥ 20 µM
Kd [9, 47]: ≥ 20 µM
Kd [10, 47]: ≥ 20 µM
Kd ([11]; source organism: Ravn virus - Ravn, Kenya, 1987): ≥ 20 µM
Kd [34, 47]: ≥ 20 µM
Kd [28, 47]: ≥ 20 µM
Kd [29, 47]: ≥ 20 µM
Kd [35]: ≥ 20 µM
Kd [12, 47]: ≥ 20 µM
Kd [36]: ≥ 20 µM
Kd [37]: ≥ 20 µM
Kd [18, 47]: ≥ 20 µM
Kd [38]: ≥ 20 µM
Kd [39]: ≥ 20 µM

Sequence: YPRYPGVRC
Kd ([1]; source organism: Influenza A virus (A/nt/60/1968(H3N2))): 0.0103 µM

Sequence: YTYPIAHTA
Kd ([23]; source organism: Coxiella burnetii RSA 331): 0.0011 µM
Kd [40]: 0.004 µM
Kd [18, 48]: 0.0025 µM
Kd [19, 48]: 0.852 µM

Sequence: FMIDWILDA
Kd ([23]; source organism: Aeromonas salmonicida subsp. salmonicida): ≤ 0.0001 µM
Kd [24, 49]: ≥ 20 µM
Kd [7, 49]: ≥ 20 µM
Kd [26, 49]: ≥ 20 µM
Kd [8, 49]: ≥ 20 µM
Kd [27, 49]: ≥ 20 µM
Kd [34, 49]: ≥ 20 µM
Kd [28, 49]: 0.264 µM
Kd [29, 49]: ≥ 20 µM
Kd [13, 49]: ≥ 20 µM
Kd [14, 49]: ≥ 20 µM
Kd [16, 49]: ≥ 20 µM
Kd [17, 49]: ≥ 20 µM
Kd [18, 49]: 0.056 µM
Kd [30, 49]: ≥ 20 µM
Kd [19, 49]: 0.003 µM
